From publication PMC8857470, “Molecular insights into the maturation of phosphodiesterase 6 by the specialized chaperone complex of HSP90 with AIPL1” (The Journal of Biological Chemistry, 2022)

Molecular target: Avi-tagged HSP90β (full-length human HSP90β, residues 1–724) (human) (UniProt P08238)
Sequence (P08238 whole entry, the tested form may be a part): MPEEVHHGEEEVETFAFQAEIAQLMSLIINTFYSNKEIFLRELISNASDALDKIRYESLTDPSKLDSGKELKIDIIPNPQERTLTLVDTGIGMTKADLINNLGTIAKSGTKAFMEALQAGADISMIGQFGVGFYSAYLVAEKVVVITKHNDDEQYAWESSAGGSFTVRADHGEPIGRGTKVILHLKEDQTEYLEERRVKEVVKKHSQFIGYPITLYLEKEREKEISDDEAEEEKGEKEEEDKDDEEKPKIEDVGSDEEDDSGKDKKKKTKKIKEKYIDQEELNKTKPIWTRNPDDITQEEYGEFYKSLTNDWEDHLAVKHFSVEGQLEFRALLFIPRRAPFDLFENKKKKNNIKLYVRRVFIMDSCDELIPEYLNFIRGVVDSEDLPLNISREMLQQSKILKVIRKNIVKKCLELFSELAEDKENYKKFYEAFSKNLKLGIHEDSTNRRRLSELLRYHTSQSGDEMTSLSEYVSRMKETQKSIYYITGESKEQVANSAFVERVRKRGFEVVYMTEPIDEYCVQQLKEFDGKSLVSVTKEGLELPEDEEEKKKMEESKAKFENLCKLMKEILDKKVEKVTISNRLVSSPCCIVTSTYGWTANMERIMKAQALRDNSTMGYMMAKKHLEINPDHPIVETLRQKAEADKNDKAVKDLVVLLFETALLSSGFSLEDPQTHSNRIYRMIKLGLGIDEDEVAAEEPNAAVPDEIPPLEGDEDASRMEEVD

B1: AIPL1-K265A (natural protein)
chain: MDVSLLLNVEGVKKTILHGGTGELPSFITGSRVTFHFRTMKCDDERTVIDDSKQVGQPMSIIIGNMFKLEVWETLLTSMRLGEVAEFWCDTIHTGVYPMLSRSLRQVAEGKDPTSWHVHTCGLANMFAYHTLGYEDLDELQKEPQPLVFLIELLQVEAPNEYQRETWNLNNEERMQAVPLLHGEGNRLYKLGRYDQAATKYQEAIVCLRNLQTKEKPWEVEWLKLEKMINTLILNYCQCLLKKEEYYEVLEHTSDILRHHPGIVAAYYMRARAHAEVWNAEEAKADLEKVLELEPSMRKAVLRELRLLESRLADKQEEERQRCRSMLG
  cGMP hydrolysis (PDE6 activity) in lysates of HEK293T cells cotransfected with PDE6C, Pγ and the AIPL1 mutant (nmol•min^−1• mg^−1): 8.8

B2: AIPL1-K265W (natural protein)
chain: MDVSLLLNVEGVKKTILHGGTGELPSFITGSRVTFHFRTMKCDDERTVIDDSKQVGQPMSIIIGNMFKLEVWETLLTSMRLGEVAEFWCDTIHTGVYPMLSRSLRQVAEGKDPTSWHVHTCGLANMFAYHTLGYEDLDELQKEPQPLVFLIELLQVEAPNEYQRETWNLNNEERMQAVPLLHGEGNRLYKLGRYDQAATKYQEAIVCLRNLQTKEKPWEVEWLKLEKMINTLILNYCQCLLKKEEYYEVLEHTSDILRHHPGIVWAYYMRARAHAEVWNAEEAKADLEKVLELEPSMRKAVLRELRLLESRLADKQEEERQRCRSMLG
  cGMP hydrolysis (PDE6 activity) in lysates of HEK293T cells cotransfected with PDE6C, Pγ and the AIPL1 mutant (nmol•min^−1• mg^−1): 3
